± gives the standard deviation.
Assay: protein stability index of a GFP-peptide fusion (GPS, HEK-293T) (PSI 1-6); higher = more stable
Details: c terminus: a fixed tail appended
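Further: 24-mer peptide tiles fused after GFP, lentivirally expressed, FACS-sorted into six equal bins by GFP/DsRed ratio, decoded by Illumina sequencing, PSI is the read-weighted mean bin number.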

| Sequence | protein stability index (treatment: DMSO) | protein stability index (treatment: MLN4924 1 uM, 8 h) |
| --- | --- | --- |
| PISAIRHEGKTDSERTDTAADGET [EPB41L3] | 5.71 ± 0.19 | 5.74 ± 0.078 |
| PKGRFERKRNPSRKKQHICDECGK [ZNF24] | 3.82 ± 0.49 |  |
| PKVSDQALVSAHSEWQRKLEAAEA [DMRTC1] | 4.54 ± 0.23 | 4.66 ± 0.29 |
| PLLKMDLNSEQAEQLERINDALSC [FAM98B] | 4.29 ± 0.24 | 4.36 ± 0.1 |
| PLLSNTFTETNNHWPQGPTGPPGP [EMID1] | 3.53 ± 0.33 | 4.08 ± 0.14 |
| PLSSQPQAIVTEDKTDISSGRARQ [MLH1] | 4.99 ± 0.14 | 5.15 ± 0.23 |
| PLVEKKRRARINESLQELRLLLAG [HES6] | 2.63 ± 0.6 | 2.75 ± 0.73 |
| PLVLTEVLFNEKIREQIKKYRRHF [EIF5] | 2.31 ± 0.35 | 2.28 ± 0.33 |
| PMKKNNNLYSWDDFMELGRSIPDT [ACSBG2] | 3.74 ± 0.24 | 3.77 ± 0.3 |
| PMVLMIIVMCVQIKCFHEIITIGY [CDS2] | 3.01 ± 0.43 | 3.14 ± 0.66 |
| PNALIASLALGDLIYVVIDLPINV [EDNRA] | 3.12 ± 0.42 | 3.03 ± 0.35 |
| PPENSDSGTGKKEKEKKNRKGKDK [EIF5] | 5.58 ± 0.21 | 5.48 ± 0.28 |
| PPLSGALASITETIQVHRRYWRSL [HDAC6] | 2.99 ± 0.33 | 3.15 ± 0.4 |
| PPPLPNHKYNTTSTSYSPLASLPL [PLAGL1] | 3.29 ± 0.17 | 3.33 ± 0.091 |
| PPPPPLPDPTPPEPEEEILGSDDE [SRPK2] | 5.51 ± 0.23 | 5.63 ± 0.19 |
| PPRREPLPSRRDVYLSPRDDGYST [RBMX] | 4.09 ± 0.16 | 4.23 ± 0.29 |
| PSGSSGSLSTSSSSSPPGTPSPAD [CEBPB] | 5.53 ± 0.31 | 5.46 ± 0.069 |
| PSPPAAPSVADNLLASSDAALSAS [SERTAD1] | 5.25 ± 0.21 | 5.25 ± 0.094 |
| PSSFDPSMLLQRFSVAPHETQTQR [RNF180] | 4.12 ± 0.14 | 3.95 ± 0.13 |
| PTKADTEKWAEGGGHSRERADEPQ [CHGB] | 5.46 ± 0.32 | 5.36 ± 0.19 |
| PTTGRVYESDSSNHCMLSPSSSGH [C18orf25] | 4.24 ± 0.24 | 4.52 ± 0.052 |
| PTYKGLLMSLQNQLKESKSKIDAL [CEP70] | 2.45 ± 0.22 | 2.86 ± 0.19 |
| PVDSVLFYAITTLHNLLLHQEGAK [CTNNB1] | 2.81 ± 0.48 | 2.71 ± 0.17 |

| Sequence | protein stability index (treatment: DMSO) | protein stability index (treatment: MLN4924 1 uM, 8 h) |
| --- | --- | --- |
| PVHIHPAFARQAAQEPSAVPRAGP [FOXJ1] | 4.45 ± 0.088 | 4.22 ± 0.15 |
| PVSASRSSLDLSYYPTSSSTSFMS [EMD] | 3.38 ± 0.21 | 3.38 ± 0.13 |
| QARLEEQQRLAHLEDKLRLLAQAR [LRRC45] | 3.37 ± 0.61 | 3.32 ± 0.35 |
| QARRQQVKQYLSTTLGPKLASQAL [TFE3] | 2.95 ± 0.51 | 2.9 ± 0.23 |
| QASVSCALEALEPFWEVLVRSTET [HDAC6] | 2.64 ± 0.57 | 2.46 ± 1.1 |
| QDRFRIELSEEGAEGRVVGRKDIT [MOSPD3] | 4.91 ± 0.23 | 5.1 ± 0.31 |
| QEIATYRRLLEGEDAHLTQYKKEP [KRT17] | 4.68 ± 0.19 | 4.82 ± 0.18 |
| QETPYLVKLPLPAERVTLADFKGV [DVL3] | 3.25 ± 0.3 | 3.49 ± 0.18 |
| QGEAFQRALESELQQLRARLQGLE [PBXIP1] | 3.1 ± 0.17 | 3.23 ± 0.28 |
| QGEQLEVPERLLVVLDMEEGTLGY [SPSB2] | 2.86 ± 0.34 | 3.06 ± 0.24 |
| QGFSYSKSNGRGGSQAGGSGSAGQ [MYOZ1] | 4.76 ± 0.18 | 5.02 ± 0.16 |
| QHKTCMLNATSKFMEFYQDVKDWW [EDNRA] | 2.6 ± 0.74 | 2.89 ± 0.36 |
| QIRDWRGGRLENQKPRGLEGGVLR [ZSWIM9] | 3.3 ± 0.54 | 3.57 ± 0.15 |
| QIVQLTQQVDTNISVILPTVHEVD [DENND6A] | 3.07 ± 0.35 | 3.3 ± 0.37 |
| QKLQDVLHEALQDYEAGQHMEDPR [ESRRG] | 4.72 ± 0.34 | 5.13 ± 0.26 |
| QKLYVRLFQRKLSWIKMTKLEYEE [FAN1] | 2.63 ± 1.1 | 2.44 ± 0.6 |
| QLLFVIFLLLYLFTLGTNAIIIST [OR10K2] | 3.18 ± 0.37 | 3.19 ± 0.23 |
| QLQDFNIPQAGGWGPWGPWGDCSR [ADAMTS4] | 2.56 ± 0.59 | 3 ± 0.8 |
| QLQELLHHCDDHLSLYQLSLERGT [RSAD1] | 2.34 ± 0.24 | 2.58 ± 0.34 |
| QLSAPHCKKLSLELGGKNPAIIFE [ALDH8A1] | 2.8 ± 0.26 | 2.9 ± 0.43 |
| QLVLAYDYSREVNTTEELEALITD [FEM1A] | 3.53 ± 0.28 | 3.8 ± 0.34 |
| QMAEKNRRDAETWFLSKTEELNKE [KRT16] | 5.02 ± 0.57 | 4.81 ± 0.35 |
| QNECQVLKLLNHPNVIEYYENFLE [NEK8] | 2.56 ± 0.12 | 2.67 ± 0.27 |

| Sequence | protein stability index (treatment: DMSO) | protein stability index (treatment: MLN4924 1 uM, 8 h) |
| --- | --- | --- |
| QQPSKHRTDEELQPPTTTVARSGT [PLK2] | 5.47 ± 0.15 | 5.27 ± 0.1 |
| QQREKLSLIRKHAQTFIALCATDF [CCND2] | 2.25 ± 0.22 | 2.44 ± 0.13 |
| QRDVGWAALLILFAASLLTVFAWL [C2CD2L] | 2.94 ± 0.34 | 3.05 ± 0.56 |
| QSIEYAGQQDQVKLHDFFSYLMDH [PPEF2] | 2.94 ± 0.26 | 2.92 ± 0.49 |
| QTGEWQNIAIMTEEPELSPAYLIS [GFOD1] | 3.05 ± 0.17 | 3.25 ± 0.22 |
| QVESRWGYSGTSDRIRFTVNRRIS [BTBD1] | 3.38 ± 0.23 | 3.53 ± 0.37 |
| QVITQTGVPGQPLNFKAEPESETS [PTPRD] | 5.18 ± 0.24 | 5.31 ± 0.25 |
| QVRIRYLGERRAEPHSLLHLSRLC [SPSB2] | 2.34 ± 0.2 | 2.22 ± 0.22 |
| QVVTVHLQTSLENGTRVQEEPELV [FKBP8] | 4.18 ± 0.15 | 4.37 ± 0.31 |
| QWGTVCDDDFSIHAAHVVCRELGY [LOXL2] | 2.47 ± 0.36 | 2.38 ± 0.39 |
| QYSVEGGKETLTPSELRDLVTQQL [S100A14] | 4.59 ± 0.23 | 4.55 ± 0.13 |
| QYVYIAVMDYLPISSTSTKRTYWP [PLD5] | 3.01 ± 0.59 | 2.74 ± 0.29 |
| QYWLDGKIIAVGVIDILPNCVSSV [ATE1] | 2.93 ± 0.54 | 2.95 ± 0.66 |
| QYYRWLNYGGVIKNYFQHREFSFT [PRIM1] | 2.34 ± 0.64 | 1.98 ± 0.47 |
| RAEIENLHRTFDPHFLRVPCWKIT [MOG] | 2.27 ± 0.22 | 2.42 ± 0.22 |
| RAFAQIGPARSGFRLETLAGLRSR [MIR22HG] | 3.23 ± 0.53 | 3.2 ± 0.3 |
| RALATSNARAQQRAAAQQRRSFLN [GNAS] | 4.02 ± 0.15 | 4.3 ± 0.13 |
| RALRKMVSNMSGPSGEEEAKVGPG [CBY2] | 4.82 ± 0.23 | 4.87 ± 0.25 |
| RAPAEKPRGARCSNGFPERDPPRP [GCH1] | 4.2 ± 0.3 | 4.43 ± 0.17 |
| RDANGWTLLHFSAARGKERCVRVF [ASB7] | 2.29 ± 0.29 | 2.43 ± 0.43 |
| RDILVEADGAWVVKMFYSFQDKRN [STK38L] | 2.07 ± 0.29 | 2.3 ± 0.4 |
| RDRNLLQEDKALWEEEKALWVEER [CCDC70] | 5.007 ± 0.024 | 5.04 ± 0.28 |
| RDSTARRPRPQGRSVSEPRDQHPQ [RTN2] | 5.305 ± 0.037 | 5.23 ± 0.098 |

| Sequence | protein stability index (treatment: DMSO) | protein stability index (treatment: MLN4924 1 uM, 8 h) |
| --- | --- | --- |
| RDYAPPSRGYAYRDNGHSNRDEHS [RBMY1A1] | 4.59 ± 0.11 | 4.57 ± 0.36 |
| REAFPSWSSRSPQERSRVLNQVAD [ALDH8A1] | 4.2 ± 0.33 | 4.233 ± 0.03 |
| REARKRALARKQAQEQLRPQTPEP [RSPH3] | 5.04 ± 0.28 | 5.12 ± 0.15 |
| RETVLIETQLKACASFIRTRLLLQ [C8orf76] | 2.88 ± 0.57 | 2.9 ± 0.71 |
| REVALLRRLEAFEHPNVVRLMDVC [CDK4] | 2.52 ± 0.15 | 2.68 ± 0.2 |
| RFFGPNAEISQPPALSQLVNLYLG [TCF25] | 3.05 ± 0.19 | 2.96 ± 0.36 |
| RGSKMFKLRQMRVEKFIYENHPDV [MYOZ1] | 2.9 ± 0.37 | 2.52 ± 0.12 |
| RGTGQLNRFVQLSGRPHLPGKKKI [KLHDC10] | 2.99 ± 0.2 | 3.03 ± 0.26 |
| RHYAYLRDSLSHLVPALRLPGRKL [INTS4] | 2.31 ± 0.16 | 2.49 ± 0.45 |
| RIAAVEALCMLAQSSPSFAEKCLD [INTS4] | 2.46 ± 0.49 | 2.2 ± 0.53 |
| RIFTFICKDSESNKHLCYVFDSEK [GULP1] | 2.06 ± 0.56 | 2.21 ± 0.31 |
| RKILVLDLDETLIHSHHDGVLRPT [CTDNEP1] | 2.46 ± 0.2 | 2.61 ± 0.17 |
| RKKRLLDRKVLLKSDSPTGDVLLD [GOLPH3L] | 4.22 ± 0.14 | 4.14 ± 0.19 |
| RKLSPTEPKNYGSYSTQASAAAAT [SCAMP3] | 4.37 ± 0.17 | 4.38 ± 0.14 |
| RKQILLRGKLKKTEEELRRIQTQK [ZC2HC1C] | 3.99 ± 0.24 | 4.2 ± 0.26 |
| RLEINVLKKIKEKDKENKFLCVLM [CLK3] | 2.57 ± 0.52 | 2.1 ± 0.082 |
| RLKKEEEDRIVTQNRVFAYLCKRV [CEP70] | 2.55 ± 0.31 | 2.86 ± 0.43 |
| RLQVKEHQHEEIQNVRNHIHSCFS [ATL3] | 3.21 ± 0.17 | 3.23 ± 0.21 |
| RMEGSQEVVNMAVIVPKEEGVISV [WDFY2] | 3.23 ± 0.36 | 3.45 ± 0.17 |
| RPGPQSVPLQLSAHWQCGATLTQV [FCHO1] | 2.21 ± 0.23 | 2.43 ± 0.2 |
| RPRYKADVPDLQSVCSCTCYRSQD [KCNK9] | 3.34 ± 0.41 | 3.67 ± 0.23 |

From the supplement of paper PMC10567573
